Assay results as given in PMC9754288.

Target: SAP11_(CaPm) from 'Ca. P. mali' strain STAA, split-YFP fusion for BiFC ('Candidatus Phytoplasma mali' strain STAA)
Assay: split reporter (BiFC, NanoBiT); BiFC with split YFP from pBiFC-2in1 vectors in Nicotiana benthamiana mesophyll protoplasts; confocal microscopy 16 h after transformation; RFP marks transformed protoplasts

## MdTCP16, split-YFP fusion for BiFC (natural protein)
  percent of transformed protoplasts with a YFP signal: < 92.5%
